Several values for one entry are separate records, joined by “and”; a condition that tells them apart may be missing. Equal entries are not always repeated. No end group written: not given here. *: point of attachment. Biotin = O=C1N[C@H]2[C@H](CS[C@H]2CCCCC(=O)*)N1
Assays:
[1] = biological target: T1, His6-p97 WT (human, UniProt P55072 1-806); test: pull-down
[2] = biological target: T1, His6-p97 WT; test: mass photometry
[3] = biological target: T1, His6-p97 WT; test: SPR

T1 sequence (P55072 whole entry): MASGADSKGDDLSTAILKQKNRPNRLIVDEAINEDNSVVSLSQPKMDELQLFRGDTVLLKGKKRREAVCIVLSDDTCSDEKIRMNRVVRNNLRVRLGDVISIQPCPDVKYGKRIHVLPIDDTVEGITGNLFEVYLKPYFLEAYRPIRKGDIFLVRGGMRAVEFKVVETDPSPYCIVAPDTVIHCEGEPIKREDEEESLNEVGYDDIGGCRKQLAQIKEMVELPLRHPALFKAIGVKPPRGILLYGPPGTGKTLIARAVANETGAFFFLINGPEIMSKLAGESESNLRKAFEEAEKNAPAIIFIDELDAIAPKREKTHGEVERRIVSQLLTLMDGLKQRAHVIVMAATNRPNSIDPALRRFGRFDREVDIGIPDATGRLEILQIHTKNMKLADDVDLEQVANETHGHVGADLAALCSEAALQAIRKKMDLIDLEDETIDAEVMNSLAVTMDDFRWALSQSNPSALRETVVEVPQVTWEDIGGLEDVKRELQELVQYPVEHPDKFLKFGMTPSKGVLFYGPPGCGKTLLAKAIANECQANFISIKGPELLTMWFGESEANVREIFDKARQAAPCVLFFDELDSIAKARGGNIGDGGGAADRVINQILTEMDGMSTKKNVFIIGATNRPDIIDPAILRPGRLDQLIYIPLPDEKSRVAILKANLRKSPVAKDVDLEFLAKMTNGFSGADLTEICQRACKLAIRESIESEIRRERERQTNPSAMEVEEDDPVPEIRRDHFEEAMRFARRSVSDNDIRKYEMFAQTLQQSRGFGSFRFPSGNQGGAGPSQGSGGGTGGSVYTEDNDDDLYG

Row | binding result [1] | stoichiometry N [2] | Kd [3] [nM] | Binder
1 | binds |  |  | Biotin-PTPDLEEKRAKLAEAAERRQKEAAS [VIM peptide (SVIP, aa14-39)]
2 | binds |  |  | Biotin-NLTSEELRKRREAYFEKQQQK [VBM peptide (ATXN3, aa275-295)]
3 |  | 2 VCF1 molecules per p97 hexamer and 3 VCF1 molecules per p97 hexamer | ~10 | Strep-HA-VCF1 WT (natural protein) not shown
